In patent publication US20210079054A1 (published 2021):

B1: SEQ ID NO: 99 (protein)
chain: ISITEIKGVIVHRIETILFKKKKAIRAYLKTIRQLDNKSVIDEIIEHLDKLIFQDAPETNISVPTDTHECKRFILTISQQFSESMDL
B2: Cytopoint (anti-IL-31 mAb), monoclonal antibody to canine IL-31 (antibody, INN chains, looked up, V domains shown)
VH: EVQLVESGGDLVKPGGSLRLSCVASGFTFSNYGMSWVRQAPGKGLQWVATISYGGSYTYYPDNIKGRFTISRDNAKNTLYLQMNSLRAEDTAMYYCVRGYGYDTMDYWGQGTLVTVSS
VL: EIVMTQSPASLSLSQEEKVTITCKASQSVSFAGTGLMHWYQQKPGQAPKLLIYRASNLEAGVPSRFSGSGSGTDFSFTISSLEPEDVAVYYCQQSREYPWTFGQGTKLEIK
B3: SEQ ID NO: 87 (protein)
chain: ISITEIKGVIVHRIETILFKKKKLDNKSVIDEIIEHLDKLIFQDAPETNISVPTDTHECKRFILTISQQFS

Legend:
[1] = molecular target: T1, recombinant human IL-31 protein (UniProt Q6EBC2 24-164); assay: inhibition of IL-31/IL-31Rα interaction (ELISA); polyclonal IgG
T1 chain: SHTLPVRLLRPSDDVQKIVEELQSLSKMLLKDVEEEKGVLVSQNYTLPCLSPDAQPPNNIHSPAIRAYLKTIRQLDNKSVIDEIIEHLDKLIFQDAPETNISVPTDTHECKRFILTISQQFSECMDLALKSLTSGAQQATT

[2] = molecular target: recombinant canine IL-31 protein with C-terminal 6-His tag, secreted from Expi293 cells (canine); assay: cell-based or functional assay
recombinant canine IL-31 protein with C-terminal 6-His tag, secreted from Expi293 cells (canine), sequence (chain, as listed by the source, form in doubt): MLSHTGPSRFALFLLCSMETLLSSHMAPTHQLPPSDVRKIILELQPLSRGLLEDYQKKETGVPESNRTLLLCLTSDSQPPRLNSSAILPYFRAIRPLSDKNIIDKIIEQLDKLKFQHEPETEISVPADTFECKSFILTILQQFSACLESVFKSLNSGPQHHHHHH

Row | Binder | IC50 [1] | IC50 of signaling inhibition (canine IL-31 induced pSTAT in DH82 monocytes) [2] | inhibition of IL-31-induced pSTAT3 signaling phosphorylation [2]
1 | B1 | 1.23 µg/mL | – | –
2 | B2 | – | 3.21 µg/mL | 50 to 75%
3 | B3 | 0.277 µg/mL | – | –
